Reference: the RNAGym collection of RNA variant scans (doi:10.1073/pnas.2313332121)

B1: TPR t1 (parent)
chain: GACCAAUCUGCCCUCAGAGCUCGAGAACAUCUUCGGAUGCAGAGGAGGCAGGCUUCGGUGGCGCGAUAGCGCCAACGUCCUCAACCUCCAAUGCAUCCCACCACAUGAUGAUGCCUGAAGAGCCUUGGUUUUUUG

Variants of: B1
Assay: polymerase ribozyme fitness, log enrichment relative to wild type (log ratio); higher = more active; in vitro selection for triplet polymerase activity
How it was run: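 Genotype fitness is the logarithm of its enrichment divided by wild-type enrichment, using inverse-variance-weighted averages of replicates. That logarithm is base 2. Enrichment was measured by Illumina sequencing of input and output libraries from one triplicate in vitro selection round, with frozen incubation at −7 °C, on PCR-built, transcribed mutant libraries of each subunit of a heterodimeric triplet polymerase ribozyme, retaining genotypes with ≥10 input reads and ≥1 read per output.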

Variant | polymerase ribozyme fitness (log ratio)
GACCAAUCUGUCCUCAGAGCUCGAGAACAUCUUCGGAUGCUGAGGAGGCAGGCUUCGGUGGCACGAUAGCGCCAACGCCCUCAACCUUCAAUGCAUCCCACCACAUGAUGAUGUCUGAAGAGCCUUGGUUGUUUG | -6.29
GACCAAUCUGGCCUCAGAGCUCGAGAACAUCUUCGGAUGCAGAGGAGGCAGGCUUCGGUGGCGCGAUAGCGCCAACGUCCUCAACCUCCAAUGCAACCCACCACAUGAUGAAGCCUGAAGAACCUUGCUUUUUUG | -1.26
GACCAAUCUGUCCUCAGAGCUCGAGUACAUCUUCGGAUGCAGAGGAGGCAGGCUCCGGUGGCGCGAUAGCUCCAACGUCCUCAACCUCCAAUGCAUCCCACCACAUGAUGAUGCCUGAAGAGCCUUGGUUUUUUG | -3
GACCAAUCUGUCCUCAGAGCUCGAGUACAUCUUCGGAUGCAGAGGAGGCAGGCUUCGGUGGCGCGAUAGCGCCAACGUCCUCAACCUCCAAUGCAUCCCACCACAUGAUGAUGCCUGAAGAGCCUUGGUUUUUUG | -3.21
GACCAAUCUGUCCUCAGAGCUCGAGAACCUCUUCGGAUGCAGAGGAGGCAGGCUUCGGUGGCGCGAUAGCGGCAACGUCCUCAACCUCCAAUGCAUCCCACCACAUGAUGAAGCCUGAAGAGCCUUGGUUUUUUU | -2.74
GACCAAUCUGGCCUCAGAGCUCGAGAACAUCUUCGGAUGCAGAGGAGGCAGGCUUCGGUGGCGCGAUAGCGCCAACGUCCUCAACCUCCAAUGCAUCCCACCACAUGAUGACGCCUGAAGAGCCUUGGUUUUUUG | 1.9
GACCAAUCUGUCCUCAGAGCUCGAGUACAUCUUCGGAUGCAGAGGAGGCAGGCUCCGGUGGCGCGAUAGCGCCAGCGUCCUCCACCUCCAAUGCAUCCCACCACAUGAUGAUGCCUGAAGAGCCUUGGUUUUUUG | -3.24
GACCAAUCUGGCCUCAGAGCUCGAGAACAUCUUCGGAUGCAGAGGAGGCAGGCUUCGGUGGCGCGAUAGCGCCAACGUCCUCAACCUCCAAUGCAACCCACCACAUGAUGAUGCCUGAAGAGCCUUGGUUUUUUG | -0.629
GACCAAUCUGUCCUCAGUGCUCGAGAACAUCUUCGGAUGCAGAGGAGGCAGGCUUCGGUGGCGCGAUAGCGCCAACGUCCUCAACCUCCAAUGCAUCCCACCACAUGAUGAUGCCUGAAGAGCCUUGGUUUUUUG | -1.98
GACCAAUCUGUCCUCAGAGCUCGAGUACAUCUUCGGAUGCAGAGGAGGCAGGCUUCGGUGGCGCGAUAGCGCCAACGUCCUCAACCUACAAUGCAUCCCACCACAUGAUGAUGCCUGAAGAGCCUUGGUUUUUUG | -4.34
GACCAAUCUGUCCUCAGAGCUCGAGAUCAUCUUCGGAUGCAGAGGAGGCAGGCUUCGGUGGUGCGAUAGCGCCAACGUCCUCAACCUGCAAUGCAUGUUACCACAUGAUGAUGGCUGAAGAGCAUUGAUUUUUUG | -7.25
GACCAAUCUGUCCUCAGAGCUCGAGAACAUCUUCGGAUGCUGAGGAGGCAGGCUUCGGUGGCGCGAUACCGCCAACGUCCUCAACCUCCAAUGCAUCCCACCACAUGAUGAUGCCUGAAGAGCCUUGGUUUUUUG | -2.81
GACCAAUCUGUCCUCAGAGCUCGAGAACAUCUUCGGUUGCAGAGGAGGAAGGCUUCGGUGGCGCGAUAGCGCCAACGUCCUCAACCUCCAAUGCAUCCCACCACAUGAUGAUGCCUGAAGAGUCUUGGUUUUUUG | 0.929
GACCAAUCUGUCCUCAGAGCUCGAGAACAUCUUCGGAUGCAGUGGAGGCAGGCUUCGGUGGCGCGAUAGCGCCAACGUCCUCAUCCUCCAAUGCAUCCCACCACAUGAUGAAGCCUGAAGAGCCUUGCUUUUUUG | -3.29
GACCAAUCUGGCCUCAGAGCUCGAGAACAUCUUCGGAUGCAGAGGAGGCAGGCUUCGGUGGCGCGAUAGCGCCAACGUCCUCAACCUCCAAUGCAACCCACCACAUGAUGAUGCCUGAAGAGCCUUGGGUUUUUG | -2.87
GACCAAUCUGUCCUCAGAGCUCGAGAACAUCUUCGGAUGCAGUGGAGGCAGGCUUCGGUGUCCCGAUAGCGGCAACGUCCUCAACCUAUAAUGCAUCCCACCACAUGAUGUUGCCUGAAGAGCCUUGGUUUUUUG | -6.46
GACCAAUCUGUCCUCAGAGCUCGAGAACGUCUUCGGAUGCAGAGGAGGCAGGUUUCGGUGGCGCGAUAGCGCGAACGUCCUCAACCUCCAAUGCAUCCCACCACAUGAUGAUGCCUGAAGAGCCUUGGUUUUUUG | -1.9
GACCAAUCUGUCCUCAGAGCUCGAGAACAUCUUCGGAUGCAGCGGAGGCAGGCUUCGGUGGCGCGAUAGCGCCAAUGUCCUCUACCUCCGAUGCAUCCCACCACAUGAUGAUGCCUGAAGAGCCUUGGUUUUUUG | -3.5
GACCAAUCUGUCCUCAGAGCUCGGGAACAUCUUCGGAUGCAGAGUAGGCAGGCUUCGGUGGCGCGAUAGCGCCAACGUCCUCAACCUCCAGUGCAUCCCACCACAUGAUGAUGCCUGAAGAGCCUUGGUUUUUUG | -5.06
GACCAAUCUGUCCUCAGCGCUCGAGAACAUCUUCGGAUGCAGAGGAGGCAGGCUUCGGUGGCGCGAUAGCGCCAACGUCCUAAACCUCCAAUGCAUCCCACCAUAUGAUGAUGCCUGAAGAGCCUUGGUUUUUUG | -2.34
GACCAAUCUGUCCUCAGAGCUCGAGAACAUCUUCGGAUGCAGGGGAGGCAGGCUUCGGUGGCACGAUAGCGCCAACGUCCUCAACCUCCAAUGCAUCCCACCACAUGAUGAUGCCUGAAGAGCCUUGGUUUUUUG | -5.66
